Test results as given in paper doi:10.1101/058016.

What was measured:
[1] = target: calmodulin on CaM-Sepharose 4B (UniProt P0DP23); assay: pull-down
[2] = target: PDZ1 of PSD-95 (residues 61-151), soluble recombinant domain (murine) (UniProt Q62108); assay: SPR
[3] = target: calmodulin (CaM), used with Ca2+ (UniProt P0DP23); assay: SPR
[4] = target: PDZ3 of PSD-95 (residues 302-402), soluble recombinant domain (murine) (UniProt Q62108); assay: SPR
[5] = target: PDZ123 (PSD-95 residues 61-402)-HaloTag fusion on HaloLink resin (murine) (UniProt Q62108); assay: pull-down
[6] = target: PDZ123 of PSD-95 (residues 61-403), soluble recombinant fragment with all three PDZ domains (murine) (UniProt Q62108); assay: SPR

## r-synGAP (soluble recombinant synGAP, residues 103-1293 of synGAP A1-α1) (domain or fragment)
[1]
  Kd: 31 nM
[2]
  Kd: 140 nM
[3]
  Kd: 9 nM
[4]
  Kd: 730 nM

## r-synGAP S1283D (domain or fragment)
[5]
  percent reduction of binding relative to wild-type: 50%
[6]
  fold increase of KDapp over wild-type r-synGAP: 4 fold

## r-synGAP phosphorylated by CaMKII (domain or fragment)
[6]
  fold increase of KDapp over unphosphorylated r-synGAP: 10 fold

## sr-synGAP (C-terminal truncated synGAP, residues 103-725 of synGAP A1-α1) (domain or fragment)
[1]
  Kd: 210 nM
